According to the supplement of paper PMC10899765:
“And” between values parts separate entries of the source, which are not always exact repeats. Equal entries are not always repeated.

What was measured:
Details in all cases: 20 nM; 72 h
MCF10A [1] = assay: percent viability (nuclei count relative to siNT); higher = more viable cells
Protocol: (§1)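 After 72 h, cells were fixed and stained with Hoechst and anti-fibrillarin, and nucleoli per nucleus were counted with CellProfiler. Values are plate-adjusted percent effect for the one-nucleolus and 5+ nucleoli phenotypes, normalised to siNT (0%) and to the positive controls siNOL11 or siKIF11 (100%), as the mean of biological triplicates. Percent viability is the nuclei count relative to siNT.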

MCF10A [2] = assay: 5+ nucleoli phenotype percent effect (relative to siNT 0% and siKIF11 100%); higher = more cells with five or more nucleoli
Protocol: as §1

MCF10A [3] = assay: one-nucleolus phenotype percent effect (relative to siNT 0% and siNOL11 100%); higher = more cells with one nucleolus (ribosome biogenesis inhibition)
Protocol: as §1

Sequence	percent viability (MCF10A [1])	5+ nucleoli phenotype percent effect (MCF10A [2])	one-nucleolus phenotype percent effect (MCF10A [3])
CAGCCUGACAGGAACAG [hsa-miR-4293]	33.8%	4.42%	-6.3%
UGCCUCCUCCGUGGCCUCAG [hsa-miR-6829-3p]	22.7%	-1.77%	0.866%
GGGGCUGGGCGCGCGCC [hsa-miR-4492]	33.5%	-0.324%	24.8%
AAGGCAGGGCCCCCGCUCCCC [hsa-miR-940]	12.8%	-29.5%	45.5%
AACUCUGUCUUCACUCAUGAGU [hsa-miR-3664-5p]	60.5%	6.12%	-2.78%
AAAAGCAUCAGGAAGUACCCA [hsa-miR-4422]	58.8%	2.92%	-9.65%
AUCGCUUUACCAUUCAUGUU [hsa-miR-4790-5p]	34.2%	-9.48%	16.1%
UGACAACUAUGGAUGAGCUCU [hsa-miR-549a]	77.8%	15.5%	-18.5%
CUCAAACCGGCUGUGCCUGUGG [hsa-miR-6715b-3p]	62.7%	-11.8%	10%
AUCACAUUGCCAGGGAUUACC [hsa-miR-23b-3p]	103%	-9.04%	0.34%
UCAGCAAACAUUUAUUGUGUGC [hsa-miR-545-3p]	124%	27.8%	-21.8%
UGUUGGGAUUCAGCAGGACCAU [hsa-miR-4425]	27.3%	-29%	19.2%
CUAUACAACCUACUGCCUUCCC [hsa-let-7b-3p]	32.4%	-18.8%	10.1%
UACUCUGGAGAGUGACAAUCAUG [hsa-miR-514a-5p]	56.4% and 66.9%	29.4% and 19%	-13.3% and -15.4%
UGAGGUAGGAGGUUGUAUAGUU [hsa-let-7e-5p]	23%	48.7%	-8.3%
AUCUGUCUCGAUUGUUUCCAG [hsa-miR-6888-3p]	110%	6.29%	23.5%
AUCAUAUGAACCAAACUCUAAU [hsa-miR-5007-3p]	107%	45.1%	-22.4%
GCGGUGAUCCCGAUGGUGUGAGC [hsa-miR-598-5p]	93.1%	32.8%	-24%
CCUCAGGGCUGUAGAACAGGGCU [hsa-miR-1266]	49.2%	16.1%	12.6%
CUGGGAGGUGGAUGUUUACUUC [hsa-miR-30b-3p]	12.9%	-27.8%	39.4%

Sequence	percent viability (MCF10A [1])	5+ nucleoli phenotype percent effect (MCF10A [2])	one-nucleolus phenotype percent effect (MCF10A [3])
CGGGCGUGGUGGUGGGGG [hsa-miR-1268a]	96.6%	44.8%	-19.1%
CGGGUGGGAGCAGAUCUUAUUGAG [hsa-miR-6766-5p]	76.6%	56.1%	-20.9%
GUGGCUGCACUCACUUCCUUC [hsa-miR-647]	46%	-9.97%	33.1%
AGGACCUGCGGGACAAGAUUCUU [hsa-miR-492]	49%	-18.8%	9.32%
AGAAGGGAAGAUGGUGAC [hsa-miR-7515]	42.5%	4.41%	-2.73%
AAAACUAGGACUGUGUGGUGUA [hsa-miR-7844-5p]	40.6%	-30.8%	15.8%
CAGCAGUCCCUCCCCCUG [hsa-miR-4274]	34.1%	7.99%	6.47%
CUCCUCCACAGCCCCUGCUCAU [hsa-miR-6792-3p]	56.4%	-21.5%	-4.72%
AGGAGGAUGGAGAGCUGGGCCAGA [hsa-miR-6894-5p]	28.1%	6.67%	22.2%
UCUCUGCUCUGCUCUCCCCAG [hsa-miR-6728-3p]	28.9%	19.2%	-7.63%
UGAGGUAGUAGUUUGUACAGUU [hsa-let-7g-5p]	21.6%	29%	-16.7%
CUACAAAGGGAAGCACUUUCUC [hsa-miR-524-5p]	41.4%	-38.7%	17.4%
CUCUGGGAAAUGGGACAG [hsa-miR-4314]	25.6%	-5.34%	11.2%
AGACACAUUUGGAGAGGGACCC [hsa-miR-642b-3p]	71.1%	-6.68%	-3.17%
UAUGUCCCAUCCCUCCAUCA [hsa-miR-6834-3p]	22.7%	-28.7%	21.4%
AAUGGAUUUUUGGAGCAGG [hsa-miR-1246]	33%	-4.08%	3.6%
UUUCUCUCUCCACUUCCUCAG [hsa-miR-6833-3p]	28.4%	22.2%	-1.79%
UGGGAAAGAGAAAGAACAAGUA [hsa-miR-6739-5p]	51.5%	33%	-11.2%
AAAAGUAAUUGUGGUUUUUGC [hsa-miR-548ay-5p]	134%	28.7%	-28.5%
AAGUGCCCCCACAGUUUGAGUGC [hsa-miR-371b-3p]	84.2%	68.5%	-25.4%

Sequence	percent viability (MCF10A [1])	5+ nucleoli phenotype percent effect (MCF10A [2])	one-nucleolus phenotype percent effect (MCF10A [3])
UUCCUUCUGUUGUCUGUGCAG [hsa-miR-6868-3p]	28.1%	-19.2%	-3.76%
CCUCUGAAAUUCAGUUCUUCAG [hsa-miR-146a-3p]	125%	27.1%	-13.5%
GUGAGGACUCGGGAGGUGG [hsa-miR-1224-5p]	53.3%	-12.6%	16.9%
UGCUGGGGGCCACAUGAGUGUG [hsa-miR-4731-5p]	20.7%	-2.14%	40.3%
UGUUCCUCUGUCUCCCAGAC [hsa-miR-4326]	32.4%	-25.5%	18.8%
UAAAGACUGUAGAGGCAACUGGU [hsa-miR-7161-5p]	79.8%	33.8%	-23.4%
AAAGCUGGGUUGAGAAGG [hsa-miR-320e]	28.6%	2.27%	3.44%
UGCCUACUGAGCUGAUAUCAGU [hsa-miR-24-1-5p]	49.2%	-18%	3.46%
GACACUAGGCAUGUGAGUGAUU [hsa-miR-4704-5p]	65%	0.429%	-20.2%
UGCCCUAAAUGCCCCUUCUGGC [hsa-miR-18b-3p]	98.8%	-9.28%	-2.3%
AUCGCUGCGGUUGCGAGCGCUGU [hsa-miR-639]	129%	61.4%	-17.2%
AUAUUAUUAGCCACUUCUGGAU [hsa-miR-4795-3p]	27.9%	-25.8%	3.49%
AGAAGGCCUUUCCAUCUCUGU [hsa-miR-4493]	45.9%	-36.6%	41.7%
CAGGCAGGUGUAGGGUGGAGC [hsa-miR-6893-5p]	31.2%	-6.16%	-3.82%
AGGGGGAUGGCAGAGCAAAAUU [hsa-miR-5010-5p]	44.2%	-7.77%	13.7%
GGCUCCUUGGUCUAGGGGUA [hsa-miR-4448]	45.2%	20.5%	-9.36%
CAGGCACGGGAGCUCAGGUGAG [hsa-miR-3622a-5p]	27.1%	-21.7%	42.3%
UAGCAAUACAGUACAAAUAUAGU [hsa-miR-4703-5p]	131%	32.3%	-22%
AACUCUAGCCUGAGCAACAG [hsa-miR-5684]	40.5%	-2.91%	2.62%
ACCUGGGUUGUCCCCUCUAG [hsa-miR-6742-3p]	90.1%	73.9%	-15.1%
